Results on 1 substance are retold here after US20200362049A1.

The assay deals with Recombinant, Histidine-tagged extracellular domain of human CD38 (human) (UniProt P28907). As to the kind of experiment: BLI (Forte Bio), 1:1 fit.

As for “IB4, reference monoclonal agonistic mouse anti-human CD38 antibody”, the dissociation constant (Kd) was determined as 9 nM.

Usually Kd stands for the equilibrium constant for the complex coming apart.
